B1: NLV3 TCR beta chain (CDR3β only) (parent)
chain: ASSPTGGSPSPLH
partner: MLVPMVATV

Variants of: B1
Test: T-Switch: Jurkat TCRβ−/− cells expressing a CDR3 saturation-mutagenesis library, stained with two peptide-HLA-A*02:01 tetramers (original and novel peptide) plus anti-CD3, FACS-sorted into four gates, gDNA sequenced
Conditions: with HLA-A*02:01 with peptide … (NLV 3-1, the original bait), tetramers 1 µg/mL, 30 min on ice, DP and SW gates expanded about 10 days between rounds ('two to three rounds of selection' in the Methods), gate SP: higher = more of the variant in the gate that binds the original peptide and not the novel one = retained original binding. Fold enrichment of the CDR3 variant in one FACS gate of a two-tetra, unresolved parent, parent is a CDR3 fragment, scale: fold enrichment, numbering: sequential-on-construct, sequence …

Variant | enrichment
[…] (CDR3 as printed); S8P derived by comparing it with the table's wild-type CDR3 ASSPTGGSPSPLH | 0
[…] (CDR3 as printed); L12Q derived by comparing it with the table's wild-type CDR3 ASSPTGGSPSPLH | 0
[…] (CDR3 as printed); T5Y derived by comparing it with the table's wild-type CDR3 ASSPTGGSPSPLH | 15.6
[…] (CDR3 as printed); P9R derived by comparing it with the table's wild-type CDR3 ASSPTGGSPSPLH | 0
[…] (CDR3 as printed); S8Q derived by comparing it with the table's wild-type CDR3 ASSPTGGSPSPLH | 0
[…] (CDR3 as printed); P9Y derived by comparing it with the table's wild-type CDR3 ASSPTGGSPSPLH | 0
[…] (CDR3 as printed); P4F derived by comparing it with the table's wild-type CDR3 ASSPTGGSPSPLH | 1.88
[…] (CDR3 as printed); T5H derived by comparing it with the table's wild-type CDR3 ASSPTGGSPSPLH | 1.12
[…] (CDR3 as printed); S3N derived by comparing it with the table's wild-type CDR3 ASSPTGGSPSPLH | 4.09
[…] (CDR3 as printed); T5Q derived by comparing it with the table's wild-type CDR3 ASSPTGGSPSPLH | 0
[…] (CDR3 as printed); S3C derived by comparing it with the table's wild-type CDR3 ASSPTGGSPSPLH | 11.2
[…] (CDR3 as printed); S2T derived by comparing it with the table's wild-type CDR3 ASSPTGGSPSPLH | 4.08
[…] (CDR3 as printed); S8M derived by comparing it with the table's wild-type CDR3 ASSPTGGSPSPLH | 0
[…] (CDR3 as printed); T5I derived by comparing it with the table's wild-type CDR3 ASSPTGGSPSPLH | 11.6
[…] (CDR3 as printed); S2M derived by comparing it with the table's wild-type CDR3 ASSPTGGSPSPLH | 0
[…] (CDR3 as printed); S8L derived by comparing it with the table's wild-type CDR3 ASSPTGGSPSPLH | 0
[…] (CDR3 as printed); S3I derived by comparing it with the table's wild-type CDR3 ASSPTGGSPSPLH | 0
[…] (CDR3 as printed); L12Y derived by comparing it with the table's wild-type CDR3 ASSPTGGSPSPLH | 0
[…] (CDR3 as printed); S3K derived by comparing it with the table's wild-type CDR3 ASSPTGGSPSPLH | 0
[…] (CDR3 as printed); L12V derived by comparing it with the table's wild-type CDR3 ASSPTGGSPSPLH | 0
[…] (CDR3 as printed); S3T derived by comparing it with the table's wild-type CDR3 ASSPTGGSPSPLH | 10.9

Variant | enrichment
[…] (CDR3 as printed); S10N derived by comparing it with the table's wild-type CDR3 ASSPTGGSPSPLH | 0
[…] (CDR3 as printed); P11V derived by comparing it with the table's wild-type CDR3 ASSPTGGSPSPLH | 0
[…] (CDR3 as printed); S10K derived by comparing it with the table's wild-type CDR3 ASSPTGGSPSPLH | 0
[…] (CDR3 as printed); P9L derived by comparing it with the table's wild-type CDR3 ASSPTGGSPSPLH | 1.13
[…] (CDR3 as printed); S8W derived by comparing it with the table's wild-type CDR3 ASSPTGGSPSPLH | 0
[…] (CDR3 as printed); L12S derived by comparing it with the table's wild-type CDR3 ASSPTGGSPSPLH | 1.12
[…] (CDR3 as printed); S10T derived by comparing it with the table's wild-type CDR3 ASSPTGGSPSPLH | 0
[…] (CDR3 as printed); P11F derived by comparing it with the table's wild-type CDR3 ASSPTGGSPSPLH | 0
[…] (CDR3 as printed); S2A derived by comparing it with the table's wild-type CDR3 ASSPTGGSPSPLH | 3.53
[…] (CDR3 as printed); T5N derived by comparing it with the table's wild-type CDR3 ASSPTGGSPSPLH | 0
[…] (CDR3 as printed); S8C derived by comparing it with the table's wild-type CDR3 ASSPTGGSPSPLH | 0
[…] (CDR3 as printed); P4N derived by comparing it with the table's wild-type CDR3 ASSPTGGSPSPLH | 1.25
[…] (CDR3 as printed); L12I derived by comparing it with the table's wild-type CDR3 ASSPTGGSPSPLH | 1.14
[…] (CDR3 as printed); S8N derived by comparing it with the table's wild-type CDR3 ASSPTGGSPSPLH | 0
[…] (CDR3 as printed); P9H derived by comparing it with the table's wild-type CDR3 ASSPTGGSPSPLH | 0
[…] (CDR3 as printed); L12N derived by comparing it with the table's wild-type CDR3 ASSPTGGSPSPLH | 0
[…] (CDR3 as printed); T5G derived by comparing it with the table's wild-type CDR3 ASSPTGGSPSPLH | 0
[…] (CDR3 as printed); P4K derived by comparing it with the table's wild-type CDR3 ASSPTGGSPSPLH | 0
[…] (CDR3 as printed); P4A derived by comparing it with the table's wild-type CDR3 ASSPTGGSPSPLH | 1.98
[…] (CDR3 as printed); S3L derived by comparing it with the table's wild-type CDR3 ASSPTGGSPSPLH | 0
[…] (CDR3 as printed); P4R derived by comparing it with the table's wild-type CDR3 ASSPTGGSPSPLH | 0.316

Same assay, conditions: with HLA-A*02:01 with peptide … (NLV 3-1, the original bait), tetramers 1 µg/mL, 30 min on ice, DP and SW gates expanded about 10 days between rounds ('two to three rounds of selection' in the Methods), gate SP: higher = more of the variant in the gate that binds the original peptide and not the novel one = retained original binding. Fold enrichment of the CDR3 variant in one FACS gate of a two-tetra, unresolved parent, parent is a CDR3 fragment, zero in all gates, scale: fold enrichment, numbering: …

Variant | enrichment
[…] (CDR3 as printed); S2L derived by comparing it with the table's wild-type CDR3 ASSPTGGSPSPLH | 0

Source: paper PMC13397619
